# Experimental data published in US20260274955A1 (JANUX THERAPEUTICS, published 2026).
# Key:
# [1] = target: T1, anti-CD28 Fab (SEQ ID NOs: 202, 203); assay: phage ELISA on captured Fab, wells pre-incubated with CD28 antigen (competitor);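 also: clonal phage ELISA with wells pretreated with CD28 plus blocking buffer before phage addition, bound phage detected by HRP-linked anti-M13 antibody, reference wells got blocking buffer only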
# T1 construct: biotinylated and captured on neutravidin coated plates in the phage ELISA
# T1 sequence (VH, as listed by the source, chain 1 of 2): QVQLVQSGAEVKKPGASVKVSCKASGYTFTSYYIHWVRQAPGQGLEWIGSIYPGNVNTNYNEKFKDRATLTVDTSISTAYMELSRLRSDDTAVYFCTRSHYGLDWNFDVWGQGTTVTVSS
# T1 sequence (VL, as listed by the source, chain 2 of 2): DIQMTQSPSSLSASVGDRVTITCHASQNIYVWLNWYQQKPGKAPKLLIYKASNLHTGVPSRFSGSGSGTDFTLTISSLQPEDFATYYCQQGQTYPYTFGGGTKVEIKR
# Procedure: (§1) Clonal phage were harvested as crude supernatants and screened via standard ELISAs. […] Prior to the addition of clonal phage, wells were incubated with blocking buffer and CD28 antigen or blocking buffer alone. Without washing or aspirating, clonal phage supernatants were then added to the wells and incubated for a short time. Wells were then washed followed by detection of bound phage using a horse radish conjugated anti-M13 antibody.
# [2] = target: T1, anti-CD28 Fab (SEQ ID NOs: 202, 203); assay: phage ELISA on captured Fab;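 also: ELISA with clonal phage supernatants added to wells preincubated with CD28 antigen or with blocking buffer only, bound phage detected by HRP-conjugated anti-M13 antibody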
# Procedure: as §1
# [3] = target: Anti-CD28 Fab (SEQ ID NOs: 202, 203); assay: phage binding ELISA on captured Fab;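 also: clonal phage supernatants added briefly to wells pre-incubated with CD28 antigen or with blocking buffer only, then washed, bound phage read by ELISA using HRP-coupled anti-M13 antibody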
# Chain of Anti-CD28 Fab (SEQ ID NOs: 202, 203) (VH, as listed by the source, chain 1 of 2): as the sequence (VH, as listed by the source, chain 1 of 2) above
# Chain of Anti-CD28 Fab (SEQ ID NOs: 202, 203) (VL, as listed by the source, chain 2 of 2): as the sequence (VL, as listed by the source, chain 2 of 2) above
# Procedure: as §1
# [4] = target: Anti-CD28 Fab (SEQ ID NOs: 202, 203); assay: phage binding ELISA on captured Fab, competitor CD28 antigen;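 also: clonal phage supernatant binding in wells preincubated with CD28 antigen in blocking buffer, detected by HRP-conjugated anti-M13 antibody ELISA, compared with blocking buffer alone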
# Procedure: as §1
binder,measurement,setting,value
"YCDGHSAEYLLKCL (on phage, pIII fusion) [Phage-478]",Anti-CD28 Fab signal in the presence of CD28,[1],0.07
same,"Anti-CD28 Fab (SEQ ID NOs: 202, 203) signal",[2],1.65
"YCDGHSAEYLSKCL (on phage, pIII fusion) [Phage-561]",Anti-CD28 Fab signal in the presence of CD28,[1],0.07
same,"Anti-CD28 Fab (SEQ ID NOs: 202, 203) signal",[2],1.51
"YCDGHAQEYMDKCL (on phage, pIII fusion) [Phage-500]",Anti-CD28 Fab signal in the presence of CD28,[1],0.08
same,"Anti-CD28 Fab (SEQ ID NOs: 202, 203) signal",[2],1.62
"YCDGHAKEYMDKCL (on phage, pIII fusion) [Phage-452]",Anti-CD28 Fab signal in the presence of CD28,[1],0.08
same,"Anti-CD28 Fab (SEQ ID NOs: 202, 203) signal",[2],1.68
"YCEGHIAEYMQKCL (on phage, pIII fusion) [Phage-480]",Anti-CD28 Fab signal in the presence of CD28,[1],0.13
same,"Anti-CD28 Fab (SEQ ID NOs: 202, 203) signal",[2],1.64
"YCEGHLPQYMRPCL (on phage, pIII fusion) [Phage-465]",Anti-CD28 Fab signal in the presence of CD28,[1],0.08
same,"Anti-CD28 Fab (SEQ ID NOs: 202, 203) signal",[2],1.66
"YCEGHLPMYMIKCL (on phage, pIII fusion) [Phage-464]",Anti-CD28 Fab signal in the presence of CD28,[1],0.09
same,"Anti-CD28 Fab (SEQ ID NOs: 202, 203) signal",[2],1.66
"YCEGHTAEHMQKCL (on phage, pIII fusion) [Phage-482]",Anti-CD28 Fab signal in the presence of CD28,[1],0.05
same,"Anti-CD28 Fab (SEQ ID NOs: 202, 203) signal",[2],1.64
"YCDGHSPEYIGKCL (on phage, pIII fusion) [Phage-467]",Anti-CD28 Fab signal in the presence of CD28,[1],0.07
same,"Anti-CD28 Fab (SEQ ID NOs: 202, 203) signal",[2],1.66
"YCDGHSLEYIGKCL (on phage, pIII fusion) [Phage-494]",Anti-CD28 Fab signal in the presence of CD28,[1],0.06
same,"Anti-CD28 Fab (SEQ ID NOs: 202, 203) signal",[2],1.63
"YCEGHSAQYMHKCL (on phage, pIII fusion) [Phage-481]",Anti-CD28 Fab signal in the presence of CD28,[1],0.06
same,"Anti-CD28 Fab (SEQ ID NOs: 202, 203) signal",[2],1.64
"YCEGHLAVYMEKCL (on phage, pIII fusion) [Phage-473]",Anti-CD28 Fab signal in the presence of CD28,[1],0.12
same,"Anti-CD28 Fab (SEQ ID NOs: 202, 203) signal",[2],1.65
"YCDGHGPQYIQKCL (on phage, pIII fusion) [Phage-479]",Anti-CD28 Fab signal in the presence of CD28,[1],0.07
same,"Anti-CD28 Fab (SEQ ID NOs: 202, 203) signal",[2],1.64
"YCDGHSPQYIQKCL (on phage, pIII fusion) [Phage-566]",Anti-CD28 Fab signal in the presence of CD28,[1],0.07
same,"Anti-CD28 Fab (SEQ ID NOs: 202, 203) signal",[2],1.5
"YCAGHSLEYMQKCL (on phage, pIII fusion) [Phage-487]",Anti-CD28 Fab signal in the presence of CD28,[1],0.07
same,"Anti-CD28 Fab (SEQ ID NOs: 202, 203) signal",[2],1.63
"YCDGHSEQYMSKCL (on phage, pIII fusion) [Phage-451]",Anti-CD28 Fab signal in the presence of CD28,[1],0.07
same,"Anti-CD28 Fab (SEQ ID NOs: 202, 203) signal",[2],1.68
"YCDGHSEVYMAKCL (on phage, pIII fusion) [Phage-471]",Anti-CD28 Fab signal in the presence of CD28,[1],0.06
same,"Anti-CD28 Fab (SEQ ID NOs: 202, 203) signal",[2],1.66
"YCDGHSLQYMSKCL (on phage, pIII fusion) [Phage-589]",Anti-CD28 Fab signal in the presence of CD28,[1],0.06
same,"Anti-CD28 Fab (SEQ ID NOs: 202, 203) signal",[2],1.45
"YCDGHDVEYMAKCL (on phage, pIII fusion) [Phage-470]",Anti-CD28 Fab signal in the presence of CD28,[1],0.07
same,"Anti-CD28 Fab (SEQ ID NOs: 202, 203) signal",[2],1.66
"YCDGHDVEYMSKCL (on phage, pIII fusion) [Phage-486]",Anti-CD28 Fab signal in the presence of CD28,[1],0.05
same,"Anti-CD28 Fab (SEQ ID NOs: 202, 203) signal",[2],1.64
"YCDGHRVEYMAKCL (on phage, pIII fusion) [Phage-522]",Anti-CD28 Fab signal in the presence of CD28,[1],0.09
same,"Anti-CD28 Fab (SEQ ID NOs: 202, 203) signal",[2],1.58
"YCDGHSLLYLSKCL (on phage, pIII fusion) [Phage-472]",Anti-CD28 Fab signal in the presence of CD28,[1],0.07
same,"Anti-CD28 Fab (SEQ ID NOs: 202, 203) signal",[2],1.65
"YCDGHSADYMAKCL (on phage, pIII fusion) [Phage-462]",Anti-CD28 Fab signal in the presence of CD28,[1],0.07
same,"Anti-CD28 Fab (SEQ ID NOs: 202, 203) signal",[2],1.67
"YCEGHDLIYMWKCL (on phage, pIII fusion) [Phage-488]",Anti-CD28 Fab signal in the presence of CD28,[1],0.06
same,"Anti-CD28 Fab (SEQ ID NOs: 202, 203) signal",[2],1.63
"YCDGHSWQYISKCL (on phage, pIII fusion) [Phage-455]",Anti-CD28 Fab signal in the presence of CD28,[1],0.05
same,"Anti-CD28 Fab (SEQ ID NOs: 202, 203) signal",[2],1.67
"YCDGHSREYMSKCL (on phage, pIII fusion) [Phage-458]",Anti-CD28 Fab signal in the presence of CD28,[1],0.1
same,"Anti-CD28 Fab (SEQ ID NOs: 202, 203) signal",[2],1.67
"YCDGHSREYMNKCL (on phage, pIII fusion) [Phage-469]",Anti-CD28 Fab signal in the presence of CD28,[1],0.06
same,"Anti-CD28 Fab (SEQ ID NOs: 202, 203) signal",[2],1.66
"YCDGHAPQWMAKCL (on phage, pIII fusion) [Phage-457]",Anti-CD28 Fab signal in the presence of CD28,[1],0.1
same,"Anti-CD28 Fab (SEQ ID NOs: 202, 203) signal",[2],1.67
"YCDGHAAEYMAKCV (on phage, pIII fusion) [Phage-459]",Anti-CD28 Fab signal in the presence of CD28,[1],0.07
same,"Anti-CD28 Fab (SEQ ID NOs: 202, 203) signal",[2],1.67
"YCDGHIGLYLNKCL (on phage, pIII fusion) [Phage-463]",Anti-CD28 Fab signal in the presence of CD28,[1],0.06
same,"Anti-CD28 Fab (SEQ ID NOs: 202, 203) signal",[2],1.66
"YCEGHAQEYMNKCL (on phage, pIII fusion) [Phage-460]",Anti-CD28 Fab signal in the presence of CD28,[1],0.06
same,"Anti-CD28 Fab (SEQ ID NOs: 202, 203) signal",[2],1.67
"YCDGHATEYMQKCL (on phage, pIII fusion) [Phage-484]",Anti-CD28 Fab signal in the presence of CD28,[1],0.1
same,"Anti-CD28 Fab (SEQ ID NOs: 202, 203) signal",[2],1.64
"YCDGHSTEYMEKCL (on phage, pIII fusion) [Phage-453]",Anti-CD28 Fab signal in the presence of CD28,[1],0.08
same,"Anti-CD28 Fab (SEQ ID NOs: 202, 203) signal",[2],1.68
"YCDGHSQEYMEKCL (on phage, pIII fusion) [Phage-564]",Anti-CD28 Fab signal in the presence of CD28,[1],0.06
same,"Anti-CD28 Fab (SEQ ID NOs: 202, 203) signal",[2],1.5
"YCDGHSVEYMEKCL (on phage, pIII fusion) [Phage-476]",Anti-CD28 Fab signal in the presence of CD28,[1],0.09
same,"Anti-CD28 Fab (SEQ ID NOs: 202, 203) signal",[2],1.65
"YCEGHMWEYMAKCL (on phage, pIII fusion) [Phage-485]",Anti-CD28 Fab signal in the presence of CD28,[1],0.13
same,"Anti-CD28 Fab (SEQ ID NOs: 202, 203) signal",[2],1.64
YCDGHTWMYKQKCL [Phage-886],"Anti-CD28 Fab (SEQ ID NOs: 202, 203) signal",[3],0.4
same,Anti-CD28 Fab signal in the presence of CD28,[4],0.08
"YCEGHLSQYMSKCL (on phage, pIII fusion) [Phage-466]",Anti-CD28 Fab signal in the presence of CD28,[1],0.07
same,"Anti-CD28 Fab (SEQ ID NOs: 202, 203) signal",[2],1.66
"YCAGHLPEFMDKCL (on phage, pIII fusion) [Phage-468]",Anti-CD28 Fab signal in the presence of CD28,[1],0.06
same,"Anti-CD28 Fab (SEQ ID NOs: 202, 203) signal",[2],1.66
"YCDGHAQEYRLKCL (on phage, pIII fusion) [Phage-477]",Anti-CD28 Fab signal in the presence of CD28,[1],0.07
same,"Anti-CD28 Fab (SEQ ID NOs: 202, 203) signal",[2],1.65
"YCEGHSLMYMWKCL (on phage, pIII fusion) [Phage-474]",Anti-CD28 Fab signal in the presence of CD28,[1],0.08
same,"Anti-CD28 Fab (SEQ ID NOs: 202, 203) signal",[2],1.65
"YCEGHSLMYMAKCL (on phage, pIII fusion) [Phage-563]",Anti-CD28 Fab signal in the presence of CD28,[1],0.06
same,"Anti-CD28 Fab (SEQ ID NOs: 202, 203) signal",[2],1.5
"YCDGHSSLYMHKCL (on phage, pIII fusion) [Phage-454]",Anti-CD28 Fab signal in the presence of CD28,[1],0.07
same,"Anti-CD28 Fab (SEQ ID NOs: 202, 203) signal",[2],1.67
YCAGHLDEYMEKCL [Phage-885],"Anti-CD28 Fab (SEQ ID NOs: 202, 203) signal",[3],0.4
same,Anti-CD28 Fab signal in the presence of CD28,[4],0.07
"YCAGHVAEYMAKCL (on phage, pIII fusion) [Phage-483]",Anti-CD28 Fab signal in the presence of CD28,[1],0.06
same,"Anti-CD28 Fab (SEQ ID NOs: 202, 203) signal",[2],1.64
"YCAGHAPEYMSKCL (on phage, pIII fusion) [Phage-489]",Anti-CD28 Fab signal in the presence of CD28,[1],0.05
same,"Anti-CD28 Fab (SEQ ID NOs: 202, 203) signal",[2],1.63
YCTGWQVAYMQNCF [Phage-884],"Anti-CD28 Fab (SEQ ID NOs: 202, 203) signal",[3],0.42
same,Anti-CD28 Fab signal in the presence of CD28,[4],0.06
"YCAGHAAEYMTKCL (on phage, pIII fusion) [Phage-475]",Anti-CD28 Fab signal in the presence of CD28,[1],0.07
same,"Anti-CD28 Fab (SEQ ID NOs: 202, 203) signal",[2],1.65
"YCEGHAPQYMNKCL (on phage, pIII fusion) [Phage-456]",Anti-CD28 Fab signal in the presence of CD28,[1],0.08
same,"Anti-CD28 Fab (SEQ ID NOs: 202, 203) signal",[2],1.67
"YCEGHAPQYMTKCL (on phage, pIII fusion) [Phage-461]",Anti-CD28 Fab signal in the presence of CD28,[1],0.08
same,"Anti-CD28 Fab (SEQ ID NOs: 202, 203) signal",[2],1.67
"YCDGHSPAYIWKCL (on phage, pIII fusion) [Phage-450]",Anti-CD28 Fab signal in the presence of CD28,[1],0.08
same,"Anti-CD28 Fab (SEQ ID NOs: 202, 203) signal",[2],1.68
